One block for each binder: values may come before it.
How the values were obtained:
[1] = target: T1, p75 MLL substrate with mutant CS1/CS2 sites (MLL aa 2,400 to 2,900 of noncleavable MLL mt, Myc/Flag tagged), Q03164
T1 chain: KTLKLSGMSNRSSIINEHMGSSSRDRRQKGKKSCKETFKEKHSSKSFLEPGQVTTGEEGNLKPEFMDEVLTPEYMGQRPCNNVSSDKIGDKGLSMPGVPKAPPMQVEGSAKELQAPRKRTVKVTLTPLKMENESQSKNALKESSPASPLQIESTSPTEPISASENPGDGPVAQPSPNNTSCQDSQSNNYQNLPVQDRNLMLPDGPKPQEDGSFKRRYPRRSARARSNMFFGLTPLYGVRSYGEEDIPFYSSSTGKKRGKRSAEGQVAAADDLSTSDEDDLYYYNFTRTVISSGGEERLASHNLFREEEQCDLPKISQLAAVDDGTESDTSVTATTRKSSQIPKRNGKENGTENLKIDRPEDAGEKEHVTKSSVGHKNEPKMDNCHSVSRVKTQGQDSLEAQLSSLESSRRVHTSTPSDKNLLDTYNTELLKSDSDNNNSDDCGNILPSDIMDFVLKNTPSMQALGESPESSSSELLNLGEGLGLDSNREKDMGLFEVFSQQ

[2] = target: T2, p75 MLL test substrate, wild type (MLL aa 2,400 to 2,900, N-terminal Myc tag, C-terminal Flag tag), Q03164
T2 chain: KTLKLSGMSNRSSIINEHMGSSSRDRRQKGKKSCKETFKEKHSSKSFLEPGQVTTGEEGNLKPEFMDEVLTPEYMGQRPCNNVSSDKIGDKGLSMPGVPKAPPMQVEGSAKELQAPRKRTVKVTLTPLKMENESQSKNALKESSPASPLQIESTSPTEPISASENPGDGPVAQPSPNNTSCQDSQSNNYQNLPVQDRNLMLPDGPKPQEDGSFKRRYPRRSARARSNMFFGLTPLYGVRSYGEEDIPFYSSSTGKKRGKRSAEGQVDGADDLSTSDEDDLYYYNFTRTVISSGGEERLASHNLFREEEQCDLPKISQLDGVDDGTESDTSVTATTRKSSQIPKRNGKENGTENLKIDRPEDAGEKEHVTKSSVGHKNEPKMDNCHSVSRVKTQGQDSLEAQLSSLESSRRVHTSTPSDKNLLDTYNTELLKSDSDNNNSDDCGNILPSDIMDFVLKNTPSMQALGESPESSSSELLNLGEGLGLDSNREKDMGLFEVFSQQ

[3] = target: T3, His-tagged 28 kDa alpha subunit of recombinant Taspase1 (human, UniProt Q9H6P5 1-233); assay: co-purification on a TALON column of N-terminal His-tagged Taspase1 from E. coli, Coomassie-stained SDS-PAGE, Edman degradation of the 22 kDa band
T3 construct: also called 28 kDa N-terminal alpha subunit; 29 kDa alpha; not shown: N-terminal His tag from bacterial expression vector ET15b (Novagen)
T3 sequence: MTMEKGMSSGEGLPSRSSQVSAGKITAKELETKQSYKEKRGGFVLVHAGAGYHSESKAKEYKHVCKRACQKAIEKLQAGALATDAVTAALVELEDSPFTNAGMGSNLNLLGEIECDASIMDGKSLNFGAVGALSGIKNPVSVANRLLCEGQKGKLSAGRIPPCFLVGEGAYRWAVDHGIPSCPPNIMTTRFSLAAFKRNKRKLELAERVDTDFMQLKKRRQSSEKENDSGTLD
Description: Purification of recombinant N-terminal His-tagged Taspase1 yielded an expected 50 kDa product, a His-tagged 28 kDa a subunit, and a co-purified 22 kDa polypeptide (FIG. 5A). […] Similarly when an N-terminal and C-terminal epitope tagged human Taspase1 cDNA was expressed in the human 293 T cell line, the 50 kDa product also appeared to be processed to a 28 kDa N-terminal α subunit and a 22 kDa C-terminal β subunit (FIG. 3D). […] However, the D233A mutant retained some residual enzymatic activity, although it was ˜1000 fold less efficient than the wt enzyme (FIG. 5B, middle panel). […] Thus, this MLL cleaving protease is the first endopeptidase within the Asparaginase_{—}2 family with the novel characteristic of being a threonine aspartase, Taspase1.
His-tagged Taspase1 was expressed in BL21(DE3) cells and purified with a TALON column (Clontech). N-terminal protein sequencing was performed by Molecular Biology Core Facility at the Dana-Farber Cancer Institute.

B1: Recombinant N-terminal His-tagged Taspase1 (rTaspase1), wild type, expressed in E. coli (protein)
chain 1: MTMEKGMSSGEGLPSRSSQVSAGKITAKELETKQSYKEKRGGFVLVHAGAGYHSESKAKEYKHVCKRACQKAIEKLQAGALATDAVTAALVELEDSPFTNAGMGSNLNLLGEIECDASIMDGKSLNFGAVGALSGIKNPVSVANRLLCEGQKGKLSAGRIPPCFLVGEGAYRWAVDHGIPSCPPNIMTTRFSLAAFKRNKRKLELAERVDTDFMQLKKRRQSSEKENDSGTLD
chain 2: TVGAVVVDHEGNVAAAVSSGGLALKHPGRVGQAALYGCGCWAENTGAHNPYSTAVSTSGCGEHLVRTILARECSHALQAEDAHQALLETMQNKFISSPFLASEDGVLGGVIVLRSCRCSAEPDSSQNKQTLLVEFLWSHTTESMCVGYMSAQDGKAKTHISRLPPGAVAGQSVAIEGGVCRLESPVN
in vitro cleavage of 35S-methionine labeled p75 MLL substrate [1]: but not the CS1/2 mt substrate
in vitro cleavage of 35S-methionine labeled p75 MLL substrate [2]: Recombinant Taspase1 (rTaspase1) cleaved the wt p75 MLL
in vitro cleavage, enzyme titration and time course (appearance of p47 and p42 fragments) [2]: The p47 fragment appears first, while higher enzyme concentration or more time is needed for the appearance of the p42 fragment

binding result [3]: binds
B2: 22 kDa beta subunit of recombinant Taspase1 (enzyme)
chain: TVGAVVVDHEGNVAAAVSSGGLALKHPGRVGQAALYGCGCWAENTGAHNPYSTAVSTSGCGEHLVRTILARECSHALQAEDAHQALLETMQNKFISSPFLASEDGVLGGVIVLRSCRCSAEPDSSQNKQTLLVEFLWSHTTESMCVGYMSAQDGKAKTHISRLPPGAVAGQSVAIEGGVCRLESPVN
notes: also called co-purified 22 kDa polypeptide; 22 kDa C-terminal beta subunit

B3: Recombinant His-tagged Taspase1 D233A mutant (E. coli) (protein)
chain: MTMEKGMSSGEGLPSRSSQVSAGKITAKELETKQSYKEKRGGFVLVHAGAGYHSESKAKEYKHVCKRACQKAIEKLQAGALATDAVTAALVELEDSPFTNAGMGSNLNLLGEIECDASIMDGKSLNFGAVGALSGIKNPVSVANRLLCEGQKGKLSAGRIPPCFLVGEGAYRWAVDHGIPSCPPNIMTTRFSLAAFKRNKRKLELAERVDTDFMQLKKRRQSSEKENDSGTLATVGAVVVDHEGNVAAAVSSGGLALKHPGRVGQAALYGCGCWAENTGAHNPYSTAVSTSGCGEHLVRTILARECSHALQAEDAHQALLETMQNKFISSPFLASEDGVLGGVIVLRSCRCSAEPDSSQNKQTLLVEFLWSHTTESMCVGYMSAQDGKAKTHISRLPPGAVAGQSVAIEGGVCRLESPVN
in vitro cleavage activity of purified recombinant mutant enzyme [2]: ˜1000 fold less efficient than the wt enzyme

B4: Recombinant His-tagged Taspase1 T234A mutant (E. coli) (protein)
chain: MTMEKGMSSGEGLPSRSSQVSAGKITAKELETKQSYKEKRGGFVLVHAGAGYHSESKAKEYKHVCKRACQKAIEKLQAGALATDAVTAALVELEDSPFTNAGMGSNLNLLGEIECDASIMDGKSLNFGAVGALSGIKNPVSVANRLLCEGQKGKLSAGRIPPCFLVGEGAYRWAVDHGIPSCPPNIMTTRFSLAAFKRNKRKLELAERVDTDFMQLKKRRQSSEKENDSGTLDAVGAVVVDHEGNVAAAVSSGGLALKHPGRVGQAALYGCGCWAENTGAHNPYSTAVSTSGCGEHLVRTILARECSHALQAEDAHQALLETMQNKFISSPFLASEDGVLGGVIVLRSCRCSAEPDSSQNKQTLLVEFLWSHTTESMCVGYMSAQDGKAKTHISRLPPGAVAGQSVAIEGGVCRLESPVN
in vitro cleavage activity of purified recombinant mutant enzyme [2]: threonine 234 which became the N-terminus of the β subunit is absolutely essential for cleavage activity
